B1: GpH7-B3 variant L235_04F/GpL16-k0 (antibody, human IgG1, kappa)
heavy: not shown
light: DIVMTQSPLSLPVTPGEPASISCQASESLVHSNRNTYLHWYLQKPGQSPQLLIYKVSNRFSGVPDRFSGSGSGTDFTLKISRVEAEDVGVYYCSQNTHVPPTFGQGTKVEIERTVAAPSVFIFPPSDEQLKSGTASVVCLLNNFYPREAKVQWKVDNALQSGNSQESVTEQDSKDSTYSLSSTLTLSKADYEKHKVYACEVTHQGLSSPVTKSFNRGEC
notes: also called Ho Ab L235_04F
B2: GpH7-B3 variant S337_07I/GpL16-k0 (antibody, human IgG1, kappa)
heavy: not shown
light: B1 light
notes: also called Ho Ab S337_07I
B3: GpH7-B3 variant S267_01G/GpL16-k0 (antibody, human IgG1, kappa)
heavy: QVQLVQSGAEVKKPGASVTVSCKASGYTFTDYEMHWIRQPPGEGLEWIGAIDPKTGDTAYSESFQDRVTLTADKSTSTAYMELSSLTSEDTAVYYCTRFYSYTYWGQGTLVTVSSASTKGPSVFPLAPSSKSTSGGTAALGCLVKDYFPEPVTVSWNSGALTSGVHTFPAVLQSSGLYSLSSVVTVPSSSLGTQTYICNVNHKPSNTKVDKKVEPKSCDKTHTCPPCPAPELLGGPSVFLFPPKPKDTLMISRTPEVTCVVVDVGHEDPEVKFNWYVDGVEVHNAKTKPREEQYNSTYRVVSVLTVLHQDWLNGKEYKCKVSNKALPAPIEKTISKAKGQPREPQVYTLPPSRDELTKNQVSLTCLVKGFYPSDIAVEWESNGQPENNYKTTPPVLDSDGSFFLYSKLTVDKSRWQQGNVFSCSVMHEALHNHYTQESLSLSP
light: B1 light
notes: also called Ho Ab S267_01G
B4: GpH7-B3 variant P331_10E/GpL16-k0 (antibody, human IgG1, kappa)
heavy: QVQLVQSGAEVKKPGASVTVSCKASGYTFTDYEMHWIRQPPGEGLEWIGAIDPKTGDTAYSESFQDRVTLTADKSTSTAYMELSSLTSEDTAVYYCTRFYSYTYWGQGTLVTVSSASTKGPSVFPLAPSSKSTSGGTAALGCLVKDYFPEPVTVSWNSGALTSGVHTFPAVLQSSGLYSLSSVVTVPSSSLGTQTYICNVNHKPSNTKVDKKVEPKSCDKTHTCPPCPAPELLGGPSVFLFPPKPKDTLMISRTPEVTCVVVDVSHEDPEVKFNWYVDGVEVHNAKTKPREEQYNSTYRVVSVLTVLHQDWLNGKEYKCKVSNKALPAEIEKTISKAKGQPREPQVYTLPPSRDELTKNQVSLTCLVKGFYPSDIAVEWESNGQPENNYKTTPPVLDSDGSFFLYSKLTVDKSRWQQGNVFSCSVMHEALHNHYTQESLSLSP
light: B1 light
notes: also called Ho Ab P331_10E
B5: GpH7-B3 variant P331_15Y/GpL16-k0 (antibody, human IgG1, kappa)
heavy: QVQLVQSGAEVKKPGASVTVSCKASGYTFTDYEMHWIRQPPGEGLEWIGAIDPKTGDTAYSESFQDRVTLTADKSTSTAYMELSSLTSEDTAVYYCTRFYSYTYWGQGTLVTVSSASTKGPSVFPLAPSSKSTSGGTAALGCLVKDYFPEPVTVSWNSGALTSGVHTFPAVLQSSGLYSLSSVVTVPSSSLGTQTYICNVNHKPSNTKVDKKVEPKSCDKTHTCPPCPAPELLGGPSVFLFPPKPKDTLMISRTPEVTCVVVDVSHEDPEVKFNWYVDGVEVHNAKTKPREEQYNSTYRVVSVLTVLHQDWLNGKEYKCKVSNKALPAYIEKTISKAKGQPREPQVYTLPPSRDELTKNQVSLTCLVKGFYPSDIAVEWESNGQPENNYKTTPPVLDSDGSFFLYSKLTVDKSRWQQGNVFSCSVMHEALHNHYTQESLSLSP
light: B1 light
notes: also called Ho Ab P331_15Y
B6: GpH7-B3 variant S324_06M/GpL16-k0 (antibody, human IgG1, kappa)
heavy: not shown
light: B1 light
notes: also called Ho Ab S324_06M
B7: GpH7-B3 variant T335_10E/GpL16-k0 (antibody, human IgG1, kappa)
heavy: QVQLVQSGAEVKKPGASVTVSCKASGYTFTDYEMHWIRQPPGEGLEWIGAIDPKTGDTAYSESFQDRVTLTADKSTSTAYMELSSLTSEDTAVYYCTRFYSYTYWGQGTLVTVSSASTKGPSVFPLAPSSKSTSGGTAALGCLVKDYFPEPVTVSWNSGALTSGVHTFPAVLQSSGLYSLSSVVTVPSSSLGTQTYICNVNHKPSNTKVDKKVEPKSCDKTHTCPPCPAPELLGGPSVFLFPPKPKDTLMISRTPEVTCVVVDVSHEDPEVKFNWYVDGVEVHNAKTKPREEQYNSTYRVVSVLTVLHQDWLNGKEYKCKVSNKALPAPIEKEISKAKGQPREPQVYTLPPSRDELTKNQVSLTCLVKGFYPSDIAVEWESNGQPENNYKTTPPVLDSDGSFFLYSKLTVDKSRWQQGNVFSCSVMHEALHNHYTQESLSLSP
light: B1 light
notes: also called Ho Ab T335_10E
B8: GpH7-B3 variant N325_01G/GpL16-k0 (antibody, human IgG1, kappa)
heavy: not shown
light: B1 light
notes: also called Ho Ab N325_01G
B9: GpH7-B3 variant S239_05P/GpL16-k0 (antibody, human IgG1, kappa)
heavy: not shown
light: B1 light
notes: also called Ho Ab S239_05P
B10: GpH7-B3 variant N325_04F/GpL16-k0 (antibody, human IgG1, kappa)
heavy: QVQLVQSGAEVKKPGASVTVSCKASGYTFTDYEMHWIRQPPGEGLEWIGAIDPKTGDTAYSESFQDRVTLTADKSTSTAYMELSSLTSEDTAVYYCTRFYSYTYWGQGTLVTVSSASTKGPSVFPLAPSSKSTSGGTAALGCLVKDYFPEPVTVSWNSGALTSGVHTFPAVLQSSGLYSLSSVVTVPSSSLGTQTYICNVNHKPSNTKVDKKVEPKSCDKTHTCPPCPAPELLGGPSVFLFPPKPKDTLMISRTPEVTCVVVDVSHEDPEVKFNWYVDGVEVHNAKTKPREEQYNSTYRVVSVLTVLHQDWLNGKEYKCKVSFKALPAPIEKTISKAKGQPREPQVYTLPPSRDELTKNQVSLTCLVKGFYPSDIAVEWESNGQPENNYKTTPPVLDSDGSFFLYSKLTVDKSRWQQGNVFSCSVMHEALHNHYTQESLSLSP
light: B1 light
notes: also called Ho Ab N325_04F
B11: GpH7-B3 variant L235_15Y/GpL16-k0 (antibody, human IgG1, kappa)
heavy: not shown
light: B1 light
notes: also called Ho Ab L235_15Y
B12: GpH7-B3 variant S337_16H/GpL16-k0 (antibody, human IgG1, kappa)
heavy: not shown
light: B1 light
notes: also called Ho Ab S337_16H
B13: GpH7-B3 variant P331_16H/GpL16-k0 (antibody, human IgG1, kappa)
heavy: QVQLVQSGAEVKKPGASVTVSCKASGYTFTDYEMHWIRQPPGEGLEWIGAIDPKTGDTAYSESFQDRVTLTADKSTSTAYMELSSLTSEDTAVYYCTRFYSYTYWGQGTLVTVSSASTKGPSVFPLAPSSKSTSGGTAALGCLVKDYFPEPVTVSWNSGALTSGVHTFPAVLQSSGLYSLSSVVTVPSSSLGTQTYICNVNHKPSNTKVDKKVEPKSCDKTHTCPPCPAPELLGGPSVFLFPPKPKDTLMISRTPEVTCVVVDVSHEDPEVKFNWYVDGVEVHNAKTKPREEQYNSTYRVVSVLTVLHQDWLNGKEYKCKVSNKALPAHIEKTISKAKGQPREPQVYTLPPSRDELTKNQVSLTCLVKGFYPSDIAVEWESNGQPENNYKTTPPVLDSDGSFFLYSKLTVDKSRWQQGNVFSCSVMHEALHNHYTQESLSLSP
light: B1 light
notes: also called Ho Ab P331_16H
B14: GpH7-B3 variant N325_07I/GpL16-k0 (antibody, human IgG1, kappa)
heavy: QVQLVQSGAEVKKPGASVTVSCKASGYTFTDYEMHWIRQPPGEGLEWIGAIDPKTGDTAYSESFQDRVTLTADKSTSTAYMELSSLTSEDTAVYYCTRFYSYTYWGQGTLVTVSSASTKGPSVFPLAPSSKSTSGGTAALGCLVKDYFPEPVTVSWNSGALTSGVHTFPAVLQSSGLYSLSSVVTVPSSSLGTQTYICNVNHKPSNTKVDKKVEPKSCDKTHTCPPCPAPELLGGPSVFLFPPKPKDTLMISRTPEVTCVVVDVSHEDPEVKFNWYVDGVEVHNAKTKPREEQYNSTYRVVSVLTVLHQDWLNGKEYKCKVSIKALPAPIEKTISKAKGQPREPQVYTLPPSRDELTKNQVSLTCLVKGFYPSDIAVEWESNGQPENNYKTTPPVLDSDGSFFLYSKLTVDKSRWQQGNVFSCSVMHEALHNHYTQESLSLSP
light: B1 light
notes: also called Ho Ab N325_07I
B15: GpH7-B3 variant N325_08L/GpL16-k0 (antibody, human IgG1, kappa)
heavy: not shown
light: B1 light
notes: also called Ho Ab N325_08L
B16: GpH7-B3 variant P331_20W/GpL16-k0 (antibody, human IgG1, kappa)
heavy: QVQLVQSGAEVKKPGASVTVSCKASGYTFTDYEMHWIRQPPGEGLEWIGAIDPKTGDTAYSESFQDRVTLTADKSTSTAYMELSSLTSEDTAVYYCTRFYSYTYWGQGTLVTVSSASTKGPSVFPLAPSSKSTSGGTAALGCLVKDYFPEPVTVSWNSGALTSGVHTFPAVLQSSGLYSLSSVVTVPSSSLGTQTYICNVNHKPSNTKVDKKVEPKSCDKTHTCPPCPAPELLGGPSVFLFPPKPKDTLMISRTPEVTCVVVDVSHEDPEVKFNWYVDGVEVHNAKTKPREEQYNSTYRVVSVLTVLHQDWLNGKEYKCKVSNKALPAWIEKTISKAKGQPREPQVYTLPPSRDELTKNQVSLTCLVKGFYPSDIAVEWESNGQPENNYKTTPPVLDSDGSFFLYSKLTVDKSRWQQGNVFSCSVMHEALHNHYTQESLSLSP
light: B1 light
notes: also called Ho Ab P331_20W
B17: GpH7-B3 variant P331_07I/GpL16-k0 (antibody, human IgG1, kappa)
heavy: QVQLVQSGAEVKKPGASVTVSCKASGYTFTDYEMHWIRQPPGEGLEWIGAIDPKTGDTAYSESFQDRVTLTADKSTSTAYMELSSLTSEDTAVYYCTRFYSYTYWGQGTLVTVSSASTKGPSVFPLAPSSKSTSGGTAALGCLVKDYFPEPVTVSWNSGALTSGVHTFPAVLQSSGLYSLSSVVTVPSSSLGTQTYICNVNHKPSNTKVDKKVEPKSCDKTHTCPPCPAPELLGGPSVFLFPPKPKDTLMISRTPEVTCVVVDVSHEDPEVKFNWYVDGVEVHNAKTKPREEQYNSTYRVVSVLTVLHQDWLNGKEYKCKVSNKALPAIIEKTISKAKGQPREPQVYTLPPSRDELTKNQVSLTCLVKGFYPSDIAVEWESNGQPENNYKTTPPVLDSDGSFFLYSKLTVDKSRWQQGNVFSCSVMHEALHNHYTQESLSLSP
light: B1 light
notes: also called Ho Ab P331_07I
B18: GpH7-B3 variant T335_07I/GpL16-k0 (antibody, human IgG1, kappa)
heavy: not shown
light: B1 light
notes: also called Ho Ab T335_07I
B19: GpH7-B3 variant L235_09D/GpL16-k0 (antibody, human IgG1, kappa)
heavy: not shown
light: B1 light
notes: also called Ho Ab L235_09D
B20: GpH7-B3 variant S337_08L/GpL16-k0 (antibody, human IgG1, kappa)
heavy: not shown
light: B1 light
notes: also called Ho Ab S337_08L
B21: GpH7-B3 variant P331_06M/GpL16-k0 (antibody, human IgG1, kappa)
heavy: not shown
light: B1 light
notes: also called Ho Ab P331_06M
B22: GpH7-B3 variant P238_09D/GpL16-k0 (antibody, human IgG1, kappa)
heavy: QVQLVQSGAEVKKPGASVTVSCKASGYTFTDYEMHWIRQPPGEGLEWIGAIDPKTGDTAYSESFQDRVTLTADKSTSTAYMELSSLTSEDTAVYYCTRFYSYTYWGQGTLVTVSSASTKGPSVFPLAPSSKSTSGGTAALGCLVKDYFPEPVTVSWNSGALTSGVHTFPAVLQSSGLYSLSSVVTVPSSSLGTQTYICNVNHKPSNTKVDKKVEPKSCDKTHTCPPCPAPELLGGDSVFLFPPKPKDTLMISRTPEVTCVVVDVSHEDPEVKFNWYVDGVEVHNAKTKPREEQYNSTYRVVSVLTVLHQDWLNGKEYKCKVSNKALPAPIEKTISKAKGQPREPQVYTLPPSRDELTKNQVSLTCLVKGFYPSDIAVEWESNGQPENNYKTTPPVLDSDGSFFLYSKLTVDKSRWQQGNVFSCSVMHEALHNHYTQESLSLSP
light: B1 light
notes: also called Ho Ab P238_09D
B23: GpH7-B3 variant S239_03V/GpL16-k0 (antibody, human IgG1, kappa)
heavy: not shown
light: B1 light
notes: also called Ho Ab S239_03V
B24: GpH7-B3 variant P238_15Y/GpL16-k0 (antibody, human IgG1, kappa)
heavy: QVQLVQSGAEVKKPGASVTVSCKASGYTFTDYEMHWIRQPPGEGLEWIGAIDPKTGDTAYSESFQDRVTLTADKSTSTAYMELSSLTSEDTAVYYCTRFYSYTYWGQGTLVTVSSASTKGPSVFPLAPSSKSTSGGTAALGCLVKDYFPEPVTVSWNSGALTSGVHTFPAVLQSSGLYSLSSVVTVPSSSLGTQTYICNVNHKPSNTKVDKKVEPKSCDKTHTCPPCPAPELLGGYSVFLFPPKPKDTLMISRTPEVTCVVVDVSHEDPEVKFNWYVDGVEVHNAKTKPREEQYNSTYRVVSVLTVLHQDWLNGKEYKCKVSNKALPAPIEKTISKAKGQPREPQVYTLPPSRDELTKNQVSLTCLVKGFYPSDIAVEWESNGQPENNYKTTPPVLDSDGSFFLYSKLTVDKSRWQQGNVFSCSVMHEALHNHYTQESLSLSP
light: B1 light
notes: also called Ho Ab P238_15Y
B25: GpH7-B3 variant L328_13S/GpL16-k0 (antibody, human IgG1, kappa)
heavy: not shown
light: B1 light
notes: also called Ho Ab L328_13S
B26: GpH7-B3 variant L328_10E/GpL16-k0 (antibody, human IgG1, kappa)
heavy: not shown
light: B1 light
notes: also called Ho Ab L328_10E

Data on 26 molecules can be found in US20150344570A1 (published 2015).

This test concerns the target T1, FcγRIIb extracellular domain with C-terminal His tag (human, UniProt P31994 43-217).
T1 construct: extracellular domain; also called FcgRIIb; 2b
T1 sequence (looked up): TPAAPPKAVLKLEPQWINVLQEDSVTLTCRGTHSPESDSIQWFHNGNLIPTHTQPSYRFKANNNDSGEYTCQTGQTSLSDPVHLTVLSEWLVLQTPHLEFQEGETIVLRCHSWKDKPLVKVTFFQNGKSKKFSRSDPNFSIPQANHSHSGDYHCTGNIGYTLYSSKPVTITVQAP
The test can be described thus: SPR (Biacore), relative binding. As for the experimental part:
Analysis of interaction between objective antibody and the FcγR was carried out using Biacore T100 (GE Healthcare). HBS-EP+ (GE Healthcare) was used as the running buffer, and the measurement temperature was set to 25° C. Chips produced by immobilizing the antigen peptide by the amine coupling method to a Series S Sencor Chip CM5 (GE Healthcare), or alternatively, chips produced by allowing preliminarily biotinylated antigen peptides to interact with and immobilize onto a Series S Sensor Chip SA (certified) (GE Healthcare) were used. Antibodies of interest were captured onto an antigen peptide-immobilized chip, and allowed to interact to each FcγR diluted with running buffer. To regenerate and repeatedly use the chip, the antibodies captured on the chip were washed off by reacting 10 mM glycine-HCl, pH 1.5.
In general terms: In SPR one partner is held on a chip, and binding of the other changes the refractive index at the surface.
Regarding B1, the Ho/Con_2b was 111 % of HoCon Ab GpH7-B3/GpL16-k0. Turning to B2, the Ho/Con_2b was 96.6 % of HoCon Ab GpH7-B3/GpL16-k0. To B3 belongs 97 % of HoCon Ab GpH7-B3/GpL16-k0; to B4, 92.3 % of HoCon Ab GpH7-B3/GpL16-k0. As to B5, the Ho/Con_2b is 111 % of HoCon Ab GpH7-B3/GpL16-k0.

Turning to B6, the Ho/Con_2b is 104 % of HoCon Ab GpH7-B3/GpL16-k0.

Consider B7, for which the Ho/Con_2b was 108 % of HoCon Ab GpH7-B3/GpL16-k0. Then B8, with 20.2 % of HoCon Ab GpH7-B3/GpL16-k0. To B9 belongs 61 % of HoCon Ab GpH7-B3/GpL16-k0; to B10, 65.7 % of HoCon Ab GpH7-B3/GpL16-k0.

Take B11: the Ho/Con_2b is 127 % of HoCon Ab GpH7-B3/GpL16-k0. Then B12, with 103 % of HoCon Ab GpH7-B3/GpL16-k0; and B13, with 100 % of HoCon Ab GpH7-B3/GpL16-k0. To B14 belongs 88.2 % of HoCon Ab GpH7-B3/GpL16-k0. Turning to B15, the Ho/Con_2b was 106 % of HoCon Ab GpH7-B3/GpL16-k0. For B16, the Ho/Con_2b was 111 % of HoCon Ab GpH7-B3/GpL16-k0. Then B17, with 63.3 % of HoCon Ab GpH7-B3/GpL16-k0; and B18, with 104 % of HoCon Ab GpH7-B3/GpL16-k0; and B19, with 78.7 % of HoCon Ab GpH7-B3/GpL16-k0. For the molecule B20, the Ho/Con_2b was 90.7 % of HoCon Ab GpH7-B3/GpL16-k0.

With B21, the Ho/Con_2b is 71.5 % of HoCon Ab GpH7-B3/GpL16-k0. For the molecule B22, the Ho/Con_2b is 207 % of HoCon Ab GpH7-B3/GpL16-k0. To B23 belongs 108 % of HoCon Ab GpH7-B3/GpL16-k0. With B24, the Ho/Con_2b is 114 % of HoCon Ab GpH7-B3/GpL16-k0. Regarding B25, the Ho/Con_2b was 147 % of HoCon Ab GpH7-B3/GpL16-k0. To B26 belongs 146 % of HoCon Ab GpH7-B3/GpL16-k0.
